# Paper PMC11480844 (2024)
# B1: H2-Kb / Ed16-30 (parent complex)
# chain 1: GEQVEQRPPHLSVREGDSAVIICTYTDPNSYYFFWYKQEPGAGLQLLMKVFSSTEINEGQGFTVLLNKKDKQLSLNLTAAHPGDSAVYFCAVSEPSSGQKLVFGQGTILKVYL
# chain 2: EAAVTQSPRNKVAVTGGKVTLSCNQTNNHNNMYWYRQDTGHGLRLIHYSYGAGSTEKGDIPDGYKASRPSQENFSLILELATPSQTSVYFCAGRDTGQLYFGEGSKLTVL
# chain 3: not shown
# chain 4: IQKTPQIQVYSRHPPENGKPNILNCYVTQFHPPHIEIQMLKNGKKIPKVEMSDMSFSKDWSFYILAHTEFTPTETDTYACRVKHDSMAEPKTVYWDRDM
# chain 5: SIINFEKL
# B2: H2-Kb / Ed31 (parent complex)
# chain 1: GQQVQQSPASLVLQEGENAELQCNFSTSLNSMQWFYQRPGGSLVSLFYNPSGTKHSGRLTSTTVIKERRSSLHISSSQTTDSGTYLCALEGNYAQGLTFGLGTRVSVFP
# chain 2: ETAVFQTPNYHVTQVGNEVSFNCKQTLGHDTMYWYKQDSKKLLKIMFSYNNKQLIVNETVPRRFSPQSSDKAHLNLRIKSVEPEDSAVYLCASRSAGEQYFGPGTRLTVL
# chain 3: not shown
# chain 4: B1 chain 4
# chain 5: SIINFEKL
# Variants of: B1
# Assay: % of reporter cells activated (NFAT-GFP), raw
# Note: test concentration or dose not given here.
row,Variant,ratio to parent
1,chain 5 I2G,1.25
2,chain 5 I2D,1.31
3,chain 5 I2M,1.31
4,chain 5 I2T,1.18
5,chain 5 I2W,0.866
6,chain 5 I2L,1.33
7,chain 5 I2Q,0.726
8,chain 5 I2H,0.72
9,chain 5 I2C,1.12
10,chain 5 I2V,1.33
11,chain 5 I2F,1.08
12,chain 5 I2R,0.968
13,chain 5 F5Y,1.14
14,chain 5 F5T,1.23
15,chain 5 F5M,1.28
16,chain 5 F5S,1.19
17,chain 5 F5K,1.04
18,chain 5 F5H,1.21
19,chain 5 F5A,1.21
20,chain 5 F5Q,1.25
21,chain 5 F5P,0.769
22,chain 5 F5V,1.25

row,Variant,ratio to parent
1,chain 5 F5W,1.03
2,chain 5 F5R,1.19
3,chain 5 F5I,1.11
4,chain 5 F5G,0.976
5,chain 5 F5N,0.969
6,chain 5 F5D,0.85
7,chain 5 I3A,0.413
8,chain 5 I3C,0.642
9,chain 5 E6G,0.543
10,chain 5 E6P,0.508
11,chain 5 E6Y,0.308
12,chain 5 E6K,0.503
13,chain 5 E6T,0.545
14,chain 5 E6F,0.35
15,chain 5 E6V,0.0227
16,chain 5 E6Q,0.745
17,chain 5 E6C,0.197
18,chain 5 E6W,0.422
19,chain 5 E6H,0.488
20,chain 5 E6D,1.28
21,chain 5 E6R,0.363
22,chain 5 E6N,0.588

# The remaining lines, values ahead:
row,ratio to parent,Variant
1,0.607,chain 5 I3Y
2,0.137,chain 5 I3G
3,0.69,chain 5 I3F
4,0.562,chain 5 I3D
5,1.03,chain 5 I3L
6,0.104,chain 5 I3R
7,0.45,chain 5 I3E
8,0.613,chain 5 I3T
9,0.537,chain 5 I3W
10,0.322,chain 5 I3Q
11,0.393,chain 5 I3S
12,0.386,chain 5 S1T
13,0.184,chain 5 S1R
14,0.362,chain 5 S1V
15,0.144,chain 5 S1K
16,0.522,chain 5 S1N
17,0.485,chain 5 S1G
18,0.337,chain 5 S1D
19,0.323,chain 5 S1I
20,0.259,chain 5 S1H
21,0.128,chain 5 S1W
22,0.836,chain 5 L8P
23,0.823,chain 5 L8E
24,1.04,chain 5 L8R
25,0.929,chain 5 L8W
26,1.09,chain 5 L8T
27,0.715,chain 5 L8D
28,1,chain 5 L8V

row,ratio to parent,Variant
1,1.19,chain 5 L8I
2,0.731,chain 5 L8C
3,1.13,chain 5 L8Y
4,1.12,chain 5 L8F
5,0.00872,chain 5 N4E
6,0.0322,chain 5 N4Y
7,0.0105,chain 5 N4V
8,0.507,chain 5 N4L
9,0.00803,chain 5 N4F
10,0.0453,chain 5 N4I
11,0.121,chain 5 N4P
12,0.0129,chain 5 N4W
13,0.0901,chain 5 N4Q
14,0.0285,chain 5 N4G
15,0.9,chain 5 N4D
16,0.265,chain 5 K7Y
17,0.305,chain 5 K7N
18,0.478,chain 5 K7H
19,0.297,chain 5 K7Q
20,0.401,chain 5 K7L
21,0.563,chain 5 K7C
22,0.842,chain 5 K7S
23,0.57,chain 5 K7M
24,0.106,chain 5 K7F
25,1.17,chain 5 K7R
26,0.499,chain 5 K7A
27,0.796,chain 5 K7P

# Variants of: B2
# Assay: % of reporter cells activated (NFAT-GFP), raw
row,Variant,ratio to parent
1,chain 5 I2G,1.11
2,chain 5 I2N,0.832
3,chain 5 I2D,0.962
4,chain 5 I2P,0.972
5,chain 5 I2Y,0.658
6,chain 5 I2H,0.832
7,chain 5 I2L,1.12
8,chain 5 I2S,1.12
9,chain 5 I2K,0.818
10,chain 5 I2A,1.18
11,chain 5 F5K,0.509
12,chain 5 F5N,0.525
13,chain 5 F5P,0.261
14,chain 5 F5C,0.68
15,chain 5 F5E,0.407
16,chain 5 F5T,0.956
17,chain 5 F5S,0.753
18,chain 5 E6C,0.00242
19,chain 5 E6Q,0.111
20,chain 5 E6K,0.777
21,chain 5 E6L,0.0037
22,chain 5 E6I,0.000832
23,chain 5 I3C,0.555

# Other lines, results leading:
row,ratio to parent,Variant
1,0.186,chain 5 K7G
2,0.41,chain 5 K7A
3,0.176,chain 5 K7I
4,0.323,chain 5 K7H
5,0.146,chain 5 K7Q
6,0.747,chain 5 K7C
7,0.549,chain 5 L8D
8,0.711,chain 5 L8G
9,0.854,chain 5 L8K
10,0.945,chain 5 L8M
11,0.242,chain 5 N4Y
12,0.00288,chain 5 N4D
13,0.0784,chain 5 N4H
14,0.42,chain 5 N4W
15,0.207,chain 5 N4M
16,0.934,chain 5 S1Y
17,0.504,chain 5 S1D
18,1.04,chain 5 S1G
19,0.561,chain 5 S1E
20,0.676,chain 5 S1I
21,1.04,chain 5 S1H
22,0.99,chain 5 S1T
23,0.551,chain 5 S1V
24,0.38,chain 5 I3S
25,0.735,chain 5 I3K
26,0.0382,chain 5 I3Y
27,0.0484,chain 5 I3F
28,0.225,chain 5 I3N
